Molecular target: T1, VelB-GFP (A. nidulans Velvet-like B, full length, fused to GFP) (A. nidulans, UniProt C8VTS4 1-369)
T1 construct: Velvet-like B (VelB), A. nidulans, AN0363, full-length protein with the 99-aa intrinsically disordered domain (IDD) inside the velvet domain; Strains AGB1132 (wild-type background), AGB1190 (veA deletion background), AGB1136 (with vosA:ha), AGB1149 (with veA:ha); plasmid pME4687; Fusion printed as 67 kD; also called velB::sgfp; full-length VelB-GFP; source: A. nidulans, velB:gfp in locus under …
T1 sequence (looked up): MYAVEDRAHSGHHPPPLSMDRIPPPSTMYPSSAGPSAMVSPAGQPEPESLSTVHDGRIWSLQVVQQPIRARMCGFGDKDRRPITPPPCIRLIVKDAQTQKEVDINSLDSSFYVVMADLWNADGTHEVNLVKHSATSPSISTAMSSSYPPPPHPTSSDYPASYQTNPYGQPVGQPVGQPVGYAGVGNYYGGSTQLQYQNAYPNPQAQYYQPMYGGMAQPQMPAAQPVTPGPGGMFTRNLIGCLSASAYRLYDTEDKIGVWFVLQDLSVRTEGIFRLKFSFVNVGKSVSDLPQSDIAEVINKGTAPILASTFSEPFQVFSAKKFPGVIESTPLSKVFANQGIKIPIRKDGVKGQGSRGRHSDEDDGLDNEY
Assay: co-IP; GFP and HA (anti-HA agarose) pull-downs from vegetative mycelium of A. nidulans strains expressing veA:HA or vosA:HA and velB:gfp or velB^ΔIDD:gfp under native promoters, intact veA; Western with GFP and HA antibodies
Conditions: partners not purified

B1: VosA-HA (A. nidulans VosA with HA tag) (natural protein, UniProt Q5BBX1 1-430, looked up)
chain: MSAANYPDPSLPRPSTSDDFELIVRQNPNRARVAGGKEKERKPVDPPPIVQIRVREEGTYLAQHYLQSPYFFMSCSLYDAQEDAPASIPPSTALTGTLVSSLHRLKDVDNTDGGFFVWGDLSIKVEGDFRLKFSLFEMRKTDVVFLKSIVSERFTVSPPKSFPGMAESTFLSRSFADQGVKLRIRKEPRTLIKRTAPRPEEYPQAAIPRSPSDRTAMQIPGSSYPAPPYQPTSRDYSYYAPVKRQRTSVDYGARGMYDADGRMRQMETYPQTATLYGQPGGYPTPMMGYPSGHGGVPDYAMSYGLPPSAQVPQMQDPAAQSRSSQQATMQSLGMVNPPGTPTPDSARAMMQQAYPRPQYSASTAVLPPLQQSRNYPQGTNGATRGYYEQSPQATPILPSQPLGTSEAERYGVPPGHTGYDHTGSANGTPR
notes: Viability of spores A (VosA), A. nidulans, AN1959; the vosA gene amplified with its 5' flanking region; Plasmid pME4693; strains AGB1136 (with velB:gfp) and AGB1137 (with velB^ΔIDD:gfp); source: A. nidulans, vosA:ha under its native promoter, in extract of vegetative mycelium
  fold abundance of VosA in the GFP pull-down against the VelB^ΔIDD-GFP strain: 10 fold
